Measurements from the DeepSol protein solubility set.

Assay: soluble on expression in E. coli; label from the status in PepcDB or PDB records

Sequence | soluble on expression in E. coli
MKNILVFLMLGVMLSALQELRYPSGYRVNGSRVFYTYIELTEIDMTTFEILNERYAKDKNAVYYEGKVIVNVDPEDFELLGDFFGKTKNNIYIGNTIIKDADINSFELLGHSRSRDKNHVFFADKILKNADPATYIVFNNKYAKDKNHVYFWDKEIENADAPTFEVLNGEYGKDKNRVYYNSRVVRKADPATFRILEGPFSKDKNYVYVTGEIFEKADVKTFQTLGDYGYAKDKRYVYRYNKILEGEKPADFLPPPQPVIMY | not soluble
MPVELKSFDEFVKVVERAVECRVKRGKDVVKIKARTKRYLYTLKVPPEKEAEVLEQVKAKCKNLVELLEHHHHHHLEHHHHHHLEHHHHHHLEHHHHHHLEHHHHHHLEHHHHHHLEHHHHHH | not soluble
LPEIPIAAPDLLGHGRSPWAAPWTIDANVSALAALLDNQGDGPVVVVGHSFGGAVAMHLAAARPDQVAALVLLDPAVALDGSRVREVVDAMLASPDYLDPAEARAEKATGAWADVDPPVLDAELDEHLVALPNGRYGWRISLPAMVCYWSELARDIVLPPVGTATTLVRAVRASPAYVSDQLLAALDKRLGADFELLDFDCGHMVPQAKPTEVAAVIRSRLGPR | soluble
MEIDELPSGTQDQKPDIDMNEIVGTHDILMLCFDTLRYDVSVAEEASGGTPVLNSCGNGWEKRHAPGNFTYPSHFAIFAGFLPSPAEPHMLRNRKWLFFPFQAGTGRIPPEGSYAFKEATFVQSLAQVGYETICIGGVNFFSKRNDIGRVFPGYFNKSYWLPTFGCTDKNSAANQVDFAVDKLEKYPADRKVFMYINFSAIHYPNCHYVEGKKKDDKESHAAALRYVDSQLPRLFEAFRRRSDTLVIALSDHGTCYGEDGYEYHCISHEKVYTVPYKHFILRKLEHHHHHH | soluble
MGSDKIHHHHHHMNIIKSFNSTIDYLETVLDDEIDEKKVTRISGYSYSMFSRLFSILTEMTLSEYLRSRRLTEAAIILRDTDEKIIDVAFKFGYESSDSFGTAFKNFHGFTPSEVRIGKPFKLVSRVQLALSVRGGRSMNIRIQKKKAFTVAGVNQQNINSSICASLWQKLFSKVSHEEMLNLGTGEVVGVCHDILSLDNHDVLDSNTINYMAGYIVTDVDKARSMGLDILEIGETEYAVVELTGSVPECIHNGWKYAMEVFFPEHGYVHSGKPDFEYYYEGDMYSKDYKMELWIPVCKS | not soluble
MSVATATMPQQQNNFAQTLSQSSSTASAPAPTSAPVTTPAPGSRGAALFGGVFHRGFFSKPVERTEEENYRYLMALDR | not soluble
MSLNIYRAASVLIDEAGKNDFEISLLGKVNDLVYDTKNEYLYAVSQKGLLAKLNASNGDVIWRQSIAPETSQLNYNPVTNFIITVDKDYLYIWNSKNGILDRKIELADGKGKLFEVNKGFVYLNPHTRKFIELDLQASFSISIERDLQLDAISFLTYAEKNYVLFKRDGQFVLQALDHNYAVYGPETVLNVPENAQLLVTEKDVIIYSSNGVIYGIHVSMADISQLLIDEYKTFEWSSIPGKRHGYSITVDSQSTPVTYLFVIIDSEFVLIDEYIHEDTEALGYIHMEDNQTFSRVFAVANQIKFAPATVITIPNQLSRPVFRLFTFAEGEISAIVILDDGTFFSFSNTELVWKREEALAYAINPSILPTTLLTSYQKSIQDEENSSEGHHHHHH | soluble
SLFNPNELKMDFLKRPVTHSFLKLEIMPYKSAFNLRMRENIQSYYKQALRGWGSFEDELLGLKNTLKNLPLYQTLKIKPKKINAPICVVGNGPSLDLLLDFLKENEKNCIIFSCGTALKPLKTHGVKVDFQIEVERIDYLKEVLENAPLEDTPLMGANMLNPNAFNVAKEALMFMRGGSACAYISPLSIEYAAPLVGNAGVALAGLMSDEIYLCALDCAYIKGFKKHAQNSYYGDEKEIDTSSLISVEGNFKGYETFSDSLFLLSKERIEEALNHYQPKKVYNLSYGAKIKHAVSLNYSQVKL | not soluble
AHQYGVKSYIGIPRSYSHDRTDFMQSEQAEILYYDGKYEETVEFIRDFSKDNGLYDASPGSANSSIDKMMYATIAFEIYEALLTVPSYVIVPVGNGTTLAGIYHGFRRMYDEGVIDHLPRMVGVSTSGGNPIVDSWRHGYSRVVDLNPEEIRETSINEPLVSYRSFDGQDALSAIRETHGRAMYVSDEEMVYYSNLIYSAEGLNPLPASASAVAAIGHLKVKQDETVVSVITGRQI | not soluble
